One substance from paper PMC5506376 can be followed below.

The Km is the concentration of substrate that gives half-maximal velocity.

The data set deals with CC(=O)N[C@H]1[C@@H](OP(=O)(O)OP(=O)(O)OC[C@H]2O[C@@H](n3ccc(=O)[nH]c3=O)[C@H](O)[C@@H]2O)O[C@H](C)[C@@H](NC(C)=O)[C@@H]1O. The data set is described as follows: purified protein. As to conditions: Mg2+.

For the substance “PglC (Campylobacter jejuni subsp. jejuni NCTC 11168 = ATCC 700819)”, the Km was found to be 7.2 ± 1.1 µM.
